Experimental data: patent publication US20120321619A1 (Bayer, published 2012)

T1: recombinant soluble human C4.4a (human, UniProt O95274 31-308)
T1 construct: recombinant, soluble, purified protein; also called hC4.4a; full length C4.4a
T1 sequence: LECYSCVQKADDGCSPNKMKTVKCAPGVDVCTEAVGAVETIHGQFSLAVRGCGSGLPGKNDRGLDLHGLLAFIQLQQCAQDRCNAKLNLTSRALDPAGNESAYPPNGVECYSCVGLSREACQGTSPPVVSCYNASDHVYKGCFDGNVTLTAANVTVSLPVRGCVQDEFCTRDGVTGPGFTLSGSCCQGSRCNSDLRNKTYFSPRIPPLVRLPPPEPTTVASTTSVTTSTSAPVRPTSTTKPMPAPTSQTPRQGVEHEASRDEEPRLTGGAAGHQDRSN

T2: recombinant soluble murine C4.4a (mouse, UniProt Q91YK8 33-343, limits assumed)
T2 construct: also called mouse C4.4a; mC4.4a
T2 sequence (looked up): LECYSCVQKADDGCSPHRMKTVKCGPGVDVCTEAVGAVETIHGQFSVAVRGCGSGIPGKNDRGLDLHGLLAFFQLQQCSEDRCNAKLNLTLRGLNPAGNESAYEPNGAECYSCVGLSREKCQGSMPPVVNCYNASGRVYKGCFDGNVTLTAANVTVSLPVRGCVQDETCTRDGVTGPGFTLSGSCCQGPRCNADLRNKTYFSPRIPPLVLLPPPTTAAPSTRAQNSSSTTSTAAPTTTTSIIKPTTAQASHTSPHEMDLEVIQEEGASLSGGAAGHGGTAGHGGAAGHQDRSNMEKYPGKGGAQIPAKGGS

T3: murine C4.4a on transfected CHO-S:mC4.4a cells (mouse, UniProt Q91YK8 33-343)
T3 construct: full length GPI-anchored form, stably transfected; also called Mouse C4.4a:CHO; mC4.4a: CHO
T3 sequence: T2 sequence (looked up)

T4: human C4.4a natively expressed on tumor cell lines (human, UniProt O95274 31-326)
T4 construct: whole, on cells; also called NCI H292; NCI H322
T4 sequence (looked up): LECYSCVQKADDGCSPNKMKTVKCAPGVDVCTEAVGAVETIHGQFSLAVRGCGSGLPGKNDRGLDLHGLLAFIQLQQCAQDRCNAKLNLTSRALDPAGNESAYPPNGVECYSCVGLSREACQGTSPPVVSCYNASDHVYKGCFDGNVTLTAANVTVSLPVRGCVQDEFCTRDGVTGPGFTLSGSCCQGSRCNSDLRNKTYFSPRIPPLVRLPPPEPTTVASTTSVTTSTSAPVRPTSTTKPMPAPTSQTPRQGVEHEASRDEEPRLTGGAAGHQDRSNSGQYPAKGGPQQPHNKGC

T5: human C4.4a on transfected A549:hC4.4a cells (human, UniProt O95274 31-326)
T5 construct: full length GPI-anchored form, stably transfected; also called C4.4a:A549
T5 sequence: T4 sequence (looked up)

B1: M20-D02 S-A (antibody, human IgG1, V domains shown)
VH: EVQLLESGGGLVQPGGSLRLSCAASGFTFSDYQMTWIRQTPGKGLEWVSGVSWNGARTHYADSVKGRFTISRDNSKNTLYLQMNSLRAEDTAVYYCAKGDYLVYSAYYFDSWGQGTLVTVTS
VL: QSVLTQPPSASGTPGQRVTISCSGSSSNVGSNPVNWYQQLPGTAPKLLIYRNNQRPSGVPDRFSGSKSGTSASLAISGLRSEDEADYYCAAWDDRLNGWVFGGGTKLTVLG
notes: tested as human IgG1
B2: M31-B01 (antibody, human IgG1, V domains shown)
VH: EVQLLESGGGLVQPGGSLRLSCAASGFTFSNAWMSWVRQAPGKGLEWVSYISSSGSTIYYADSVKGRFTISRDNSKNTLYLQMNSLRAEDTAVYYCAREGLWAFDYWGQGTLVTVTS
VL: QSVLTQPPSASGTPGQRVTISCTGSSSNIGAGYVVHWYQQLPGTAPKLLIYDNNKRPSGVPDRFSGSKSGTSASLAISGLRSEDEADYYCAAWDDRLNGPVFGGGTKLTVLG
notes: tested as human IgG1

How the values were obtained:
[1] = biological target: T1, recombinant soluble human C4.4a; assay: ELISA, IgG1 on coated recombinant human C4.4a
Procedure: (§1) FIG. 2 depicts binding curves of anti-C4.4 antibody M31-B01 and M20 D02 S-A on recombinant human C4.4a (A) and murine C4.4a (B) respectively. Briefly, 96-well MTP were coated for 16 h at 4° C. with recombinant human or mouse C4.4a (100 ng/well plates were washed 3 times with PBS/0.05% Tween 20 (=buffer B) treated with blocking reagent (PBS+2% BSA), and washed again 3 times with buffer B. After that anti C4.4a antibodies of the invention were added in concentrations of 0.39 ng to 400 ng/per well and incubated for one hour at 20° C. After washing 3 times with buffer B, 20 ng of Protein A were added in 100 μl buffer B to each well. Color reaction was developed by addition of 50 W 3,3′,5,5′-Tetramethylbenzidine (TMB) (Sigma). Data for EC₅₀ determination were recorded after 18 min by measuring extinction […] a Tecan infinite plate reader. EC₅₀ values for M31-B01 were 0.24 and 0.29 nM on human and murine C4.4a, respectively. And for M20-D02 S-A EC₅₀ values were 0.3 and 0.38 nM on human and murine C4.4a, respectively. This indicates high affinity binding of anti C4.4a antibodies of the invention to both human and murine soluble recombinant C4.4a.

[2] = biological target: T2, recombinant soluble murine C4.4a; assay: ELISA, IgG1 on coated recombinant murine C4.4a
Procedure: as §1

[3] = biological target: T3, murine C4.4a on transfected …; assay: FACS titration of IgG1 on CHO-S:mC4.4a cells
[4] = biological target: T4, human C4.4a natively expressed on tumor …; assay: FACS titration on BxPC3 cells (native C4.4a), IgG1 format, phycoerythrin-labelled goat anti-human IgG detection
Procedure: (§2) FACS titration was performed in a 96 well microtiter plate, in which serial dilutions of the primary antibody in a volume of 50 W of FACS buffer (3% FCS, in PBS) were mixed with 50 μl of a cell suspension consisting of 2×10^5 cells/ml which had been detached with Cell Dissociation Solution (1×) Non-enzymatic (Sigma), and resuspended in FACS buffer. Incubation was performed at 4° C. for 1 hour with agitation. Cells were pelleted, washed with FACS buffer and resuspended in 100 μl/well of Phycoerythrin labeled goat anti human IgG (Dianova) solution in FACS buffer. Incubation and washing was performed as before. Analysis of cell-bound antibodies was done at the respective detection wavelength using the FACS Array device. EC₅₀ values were determined from fluorescence medians of duplicates using Swift 8.0 software.

[5] = biological target: T4, human C4.4a natively expressed on tumor …; assay: FACS titration on NCI H322 cells (native C4.4a), IgG1 format, phycoerythrin-labelled goat anti-human IgG detection
Procedure: as §2

[6] = biological target: T4, human C4.4a natively expressed on tumor …; assay: FACS titration on H1975/BCRP cells (native C4.4a), IgG1 format, phycoerythrin-labelled goat anti-human IgG detection
Procedure: as §2

[7] = biological target: T5, human C4.4a on transfected A549:hC4.4a …; assay: FACS titration on transfected A549:hC4.4a cells (printed 'A549:C4.4a'), IgG1 format, phycoerythrin-labelled goat anti-human IgG detection
Procedure: as §2

Row | Binder | EC50 [1] | EC50 [2] | EC50 [3] | EC50 [4] | EC50 [5] | EC50 [6] | EC50 [7]
1 | B1 | 0.3 nM | 0.38 nM | 1.6 nM | 1 nM | 1.2 nM | 1.3 nM | 4.3 nM
2 | B2 | 0.24 nM | 0.29 nM | 1.9 nM | 0.3 nM | 0.3 nM | 0.4 nM | 1.9 nM
